Experimental data published in paper PMC7367873, “Dissecting the sequence determinants for dephosphorylation by the catalytic subunits of phosphatases PP1 and PP2A” (Nature Communications, 2020).

What was measured:
[1] = test system: GFP-14-3-3β and its binding proteins; assay: GFP-14-3-3β co-IP with LC-MS/MS label-free quantification, untreated versus PP1c-treated; parameters: species or system human; conditions: PP1 vs untreated; label-free quantification
Procedure: (§1) HeLa Kyoto cells expressing transiently transfected pEGFP(C1)-14-3-3β or pEGFP(C1) control plasmid, were incubated with 20 nM Calyculin A (# 9902 S, Cell Signaling Technology) for 12 min. Cells were washed twice on ice with cold PBS and after addition of 500 µL lysis buffer (100 mM NaCl, 10 mM Tris, 0.1% IGEPAL, 1 mM EDTA, 1 mM EGTA, 20 nM Calyculin A, 1x cOmplete Mini protease inhibitor cocktail (Sigma), 1 mM DTT, 1 mM MnCl2) cells were scraped from plates, lysed by 10 pushes through an injection needle (21 G, BD) and the insoluble fraction was pelleted by centrifugation (10 min, 10^4 rcf, 4 °C). Supernatants were then subjected to incubation with 1 µM recombinant phosphatase or buffer for 1 h at 30 °C. Next, we subjected samples to immunoprecipitation using α-GFP nanobodies covalently coupled to agarose beads (2 h, 4 °C, obtained from the EMBL PEPcore Core Facility). Beads were then washed three times with lysis buffer and samples were eluted in 1x LDS sample buffer (Thermo Fisher Scientific) by heating to 70 °C for 10 min.
(§2) The samples were then reduced with 25 mM dithiothreitol (10 min at 70 °C) and alkylated with 55 mM chloroacetamide (room temperature, 30 min, in the dark). Proteins were run on a precast 4–12% NuPAGE gel (ThermoFisher Scientific) for about 1 cm to concentrate the sample prior to in-gel tryptic digestion, which was performed according to the standard procedures. The peptides obtained were dried to completeness and resuspended in 12 µL of buffer A (0.1% FA), and 5 µL of sample were injected per MS measurement. The experiment was carried out in three independent replicates.
(§3) The samples were analyzed by LC-MS/MS on a Dionex Ultimate 3000 nano-HPLC coupled online to a Fusion Lumos Tribrid mass spectrometer (Thermo Fisher Scientific). Peptides were delivered to a trap column (75 µm × 2 cm, packed in-house with 5 µm C18 resin; Reprosil PUR AQ, Dr. Maisch) and washed using 0.1% FA at a flow rate of 5 µL/min for 10 min. Subsequently, peptides were transferred to an analytical column (75 µm × 45 cm, packed in-house with 3 µm C18 resin; Reprosil Gold) applying a flow rate of 300 nL/min and separated using a 60 min linear gradient from 4% to 32% LC solvent B (0.1% FA, 5% DMSO in ACN) in LC solvent A (0.1% FA in 5% DMSO). The eluate from the analytical column was sprayed via a stainless steel emitter (Thermo Fisher Scientific) at a source voltage of 2.1 kV into the mass spectrometer. The transfer capillary was heated to 275 °C. The Fusion Lumos was operated in positive ionization mode and data-dependent acquisition (DDA), automatically switching between MS1 and MS2 spectrum acquisition. Full scan MS1 spectra were recorded in the Orbitrap from 360 to 1300 m/z at a resolution of 60k (automatic gain control (AGC) target value of 4e5 charges, maximum injection time (maxIT) of 50 ms). Up to 20 peptide precursors were isolated (isolation window, 1.7 m/z; maximum injection time, 25 ms; and AGC value, 1e5), fragmented by high-energy collision-induced dissociation (HCD) using 30% normalized collision energy (NCE), and analyzed at a resolution of 15k in the Orbitrap. Precursor ions that were singly charged, unassigned, or with charge states >6+ were excluded. The dynamic exclusion duration of fragmented precursor ions was 20 s.
(§4) Peptide and protein identification and LFQ were performed using MaxQuant software (version 1.6.1.0)[64] by searching the data against all canonical protein sequences as annotated in the Swissprot reference database (human proteins only, 20193 entries, downloaded 22 March 2016, internally annotated with PFAM domains) using the embedded search engine Andromeda[65]. The MaxQuant search was performed using two variable modifications; oxidation of methionine and N-terminal protein acetylation. Carbamidomethylation on cysteines was specified as a fixed modification. Trypsin (Trypsin/P) was specified as the proteolytic enzyme with up to two allowed missed cleavage sites.

GFP-14-3-3β = GFP-14-3-3β co-IP with LC-MS/MS, untreated GFP-14-3-3β versus GFP control (14-3-3 interactome); format: binding, human; conditions: untreated vs GFP; label-free quantification
Procedure: as §1, §2, §3, §4

Molecule	Difference (log2), PP1 vs untreated [1] [log2]	Difference (log2), untreated vs GFP (GFP-14-3-3β) [log2]
ABCD3 (protein, UniProt P28288 1-659, looked up) ATP-binding cassette …: MAAFSKYLTARNSSLAGAAFLLLCLLHKRRRALGLHGKKSGKPPLQNNEKEGKKERAVVDKVFFSRLIQILKIMVPRTFCKETGYLVLIAVMLVSRTYCDVWMIQNGTLIESGIIGRSRKDFKRYLLNFIAAMPLISLVNNFLKYGLNELKLCFRVRLTKYLYEEYLQAFTYYKMGNLDNRIANPDQLLTQDVEKFCNSVVDLYSNLSKPFLDIVLYIFKLTSAIGAQGPASMMAYLVVSGLFLTRLRRPIGKMTITEQKYEGEYRYVNSRLITNSEEIAFYNGNKREKQTVHSVFRKLVEHLHNFILFRFSMGFIDSIIAKYLATVVGYLVVSRPFLDLSHPRHLKSTHSELLEDYYQSGRMLLRMSQALGRIVLAGREMTRLAGFTARITELMQVLKDLNHGKYERTMVSQQEKGIEGVQVIPLIPGAGEIIIADNIIKFDHVPLATPNGDVLIRDLNFEVRSGANVLICGPNGCGKSSLFRVLGELWPLFGGRLTKPERGKLFYVPQRPYMTLGTLRDQVIYPDGREDQKRKGISDLVLKEYLDNVQLGHILEREGGWDSVQDWMDVLSGGEKQRMAMARLFYHKPQFAILDECTSAVSVDVEGYIYSHCRKVGITLFTVSHRKSLWKHHEYYLHMDGRGNYEFKQITEDTVEFGS	1.116	-0.7267
RTCB (protein, UniProt Q9Y3I0 1-505, looked up) RNA-splicing ligase RtcB …: MSRSYNDELQFLEKINKNCWRIKKGFVPNMQVEGVFYVNDALEKLMFEELRNACRGGGVGGFLPAMKQIGNVAALPGIVHRSIGLPDVHSGYGFAIGNMAAFDMNDPEAVVSPGGVGFDINCGVRLLRTNLDESDVQPVKEQLAQAMFDHIPVGVGSKGVIPMNAKDLEEALEMGVDWSLREGYAWAEDKEHCEEYGRMLQADPNKVSARAKKRGLPQLGTLGAGNHYAEIQVVDEIFNEYAAKKMGIDHKGQVCVMIHSGSRGLGHQVATDALVAMEKAMKRDKIIVNDRQLACARIASPEGQDYLKGMAAAGNYAWVNRSSMTFLTRQAFAKVFNTTPDDLDLHVIYDVSHNIAKVEQHVVDGKERTLLVHRKGSTRAFPPHHPLIAVDYQLTGQPVLIGGTMGTCSYVLTGTEQGMTETFGTTCHGAGRALSRAKSRRNLDFQDVLDKLADMGIAIRVASPKLVMEEAPESYKNVTDVVNTCHDAGISKKAIKLRPIAVIKG	1.104	-0.6754
LGALS3BP (protein, UniProt Q08380 19-585, looked up) Galectin-3-binding protein: VNDGDMRLADGGATNQGRVEIFYRGQWGTVCDNLWDLTDASVVCRALGFENATQALGRAAFGQGSGPIMLDEVQCTGTEASLADCKSLGWLKSNCRHERDAGVVCTNETRSTHTLDLSRELSEALGQIFDSQRGCDLSISVNVQGEDALGFCGHTVILTANLEAQALWKEPGSNVTMSVDAECVPMVRDLLRYFYSRRIDITLSSVKCFHKLASAYGARQLQGYCASLFAILLPQDPSFQMPLDLYAYAVATGDALLEKLCLQFLAWNFEALTQAEAWPSVPTDLLQLLLPRSDLAVPSELALLKAVDTWSWGERASHEEVEGLVEKIRFPMMLPEELFELQFNLSLYWSHEALFQKKTLQALEFHTVPFQLLARYKGLNLTEDTYKPRIYTSPTWSAFVTDSSWSARKSQLVYQSRRGPLVKYSSDYFQAPSDYRYYPYQSFQTPQHPSFLFQDKRVSWSLVYLPTIQSCWNYGFSCSSDELPVLGLTKSGGSDRTIAYENKALMLCEGLFVADVTDFEGWKAAIPSALDTNSSKSTSSFPCPAGHFNGFRTVIRPFYLTNSSGVD	1.074	-0.5352
TMEM43 (protein, UniProt Q9BTV4 2-400, looked up) Transmembrane protein 43: AANYSSTSTRREHVKVKTSSQPGFLERLSETSGGMFVGLMAFLLSFYLIFTNEGRALKTATSLAEGLSLVVSPDSIHSVAPENEGRLVHIIGALRTSKLLSDPNYGVHLPAVKLRRHVEMYQWVETEESREYTEDGQVKKETRYSYNTEWRSEIINSKNFDREIGHKNPSAMAVESFMATAPFVQIGRFFLSSGLIDKVDNFKSLSLSKLEDPHVDIIRRGDFFYHSENPKYPEVGDLRVSFSYAGLSGDDPDLGPAHVVTVIARQRGDQLVPFSTKSGDTLLLLHHGDFSAEEVFHRELRSNSMKTWGLRAAGWMAMFMGLNLMTRILYTLVDWFPVFRDLVNIGLKAFAFCVATSLTLLTVAAGWLFYRPLWALLIAGLALVPILVARTRVPAKKLE	1.071	-0.2983
BANF1 (protein, UniProt O75531 1-89, looked up) Barrier-to-autointegration …: MTTSQKHRDFVAEPMGEKPVGSLAGIGEVLGKKLEERGFDKAYVVLGQFLVLKKDEDLFREWLKDTCGANAKQSRDCFGCLREWCDAFL	1.068	-2.499
CGN (protein, UniProt Q9P2M7 1-1203, looked up) Cingulin: MEQAPNMAEPRGPVDHGVQIRFITEPVSGAEMGTLRRGGRRPAKDARASTYGVAVRVQGIAGQPFVVLNSGEKGGDSFGVQIKGANDQGASGALSSDLELPENPYSQVKGFPAPSQSSTSDEEPGAYWNGKLLRSHSQASLAGPGPVDPSNRSNSMLELAPKVASPGSTIDTAPLSSVDSLINKFDSQLGGQARGRTGRRTRMLPPEQRKRSKSLDSRLPRDTFEERERQSTNHWTSSTKYDNHVGTSKQPAQSQNLSPLSGFSRSRQTQDWVLQSFEEPRRSAQDPTMLQFKSTPDLLRDQQEAAPPGSVDHMKATIYGILREGSSESETSVRRKVSLVLEKMQPLVMVSSGSTKAVAGQGELTRKVEELQRKLDEEVKKRQKLEPSQVGLERQLEEKTEECSRLQELLERRKGEAQQSNKELQNMKRLLDQGEDLRHGLETQVMELQNKLKHVQGPEPAKEVLLKDLLETRELLEEVLEGKQRVEEQLRLRERELTALKGALKEEVASRDQEVEHVRQQYQRDTEQLRRSMQDATQDHAVLEAERQKMSALVRGLQRELEETSEETGHWQSMFQKNKEDLRATKQELLQLRMEKEEMEEELGEKIEVLQRELEQARASAGDTRQVEVLKKELLRTQEELKELQAERQSQEVAGRHRDRELEKQLAVLRVEADRGRELEEQNLQLQKTLQQLRQDCEEASKAKMVAEAEATVLGQRRAAVETTLRETQEENDEFRRRILGLEQQLKETRGLVDGGEAVEARLRDKLQRLEAEKQQLEEALNASQEEEGSLAAAKRALEARLEEAQRGLARLGQEQQTLNRALEEEGKQREVLRRGKAELEEQKRLLDRTVDRLNKELEKIGEDSKQALQQLQAQLEDYKEKARREVADAQRQAKDWASEAEKTSGGLSRLQDEIQRLRQALQASQAERDTARLDKELLAQRLQGLEQEAENKKRSQDDRARQLKGLEEKVSRLETELDEEKNTVELLTDRVNRGRDQVDQLRTELMQERSARQDLECDKISLERQNKDLKTRLASSEGFQKPSASLSQLESQNQLLQERLQAEEREKTVLQSTNRKLERKVKELSIQIEDERQHVNDQKDQLSLRVKALKRQVDEAEEEIERLDGLRKKAQREVEEQHEVNEQLQARIKSLEKDSWRKASRSAAESALKNEGLSSDEEFDSVYDPSSIASLLTESNLQTSSC	1.065	1.896
DARS (protein, UniProt P14868 1-501, looked up) Aspartate--tRNA ligase, …: MPSASASRKSQEKPREIMDAAEDYAKERYGISSMIQSQEKPDRVLVRVRDLTIQKADEVVWVRARVHTSRAKGKQCFLVLRQQQFNVQALVAVGDHASKQMVKFAANINKESIVDVEGVVRKVNQKIGSCTQQDVELHVQKIYVISLAEPRLPLQLDDAVRPEAEGEEEGRATVNQDTRLDNRVIDLRTSTSQAVFRLQSGICHLFRETLINKGFVEIQTPKIISAASEGGANVFTVSYFKNNAYLAQSPQLYKQMCICADFEKVFSIGPVFRAEDSNTHRHLTEFVGLDIEMAFNYHYHEVMEEIADTMVQIFKGLQERFQTEIQTVNKQFPCEPFKFLEPTLRLEYCEALAMLREAGVEMGDEDDLSTPNEKLLGHLVKEKYDTDFYILDKYPLAVRPFYTMPDPRNPKQSNSYDMFMRGEEILSGAQRIHDPQLLTERALHHGIDLEKIKAYIDSFRFGAPPHAGGGIGLERVTMLFLGLHNVRQTSMFPRDPKRLTP	1.065	-1.63
